# B1: 50G12-Hu-IgG1 (antibody)
# heavy: not shown
# light: DIQMTQSPSSLSASVGDRVTITCTASSSVSSSYLHWYQQKPGKAPKLWMYGTSNLASGVPSRFSGSGSGTDYTLTISSLQPEDFATYYCHRYHRSPWTFGQGTKVEIKRTVAAPSVFIFPPSDEQLKSGTASVVCLLNNFYPREAKVQWKVDNALQSGNSQESVTEQDSKDSTYSLSSTLTLSKADYEKHKVYACEVTHQGLSSPVTKSFNRGEC
# notes: Humanized anti-human CD38 IgG1/kappa, expressed in HEK293F cells and purified on Protein A; also called 50G12-Humanized; unmutated antibody 50G12-Hu-IgG1
# B2: 50G12-L309W-E345R (antibody, human IgG1, kappa)
# heavy: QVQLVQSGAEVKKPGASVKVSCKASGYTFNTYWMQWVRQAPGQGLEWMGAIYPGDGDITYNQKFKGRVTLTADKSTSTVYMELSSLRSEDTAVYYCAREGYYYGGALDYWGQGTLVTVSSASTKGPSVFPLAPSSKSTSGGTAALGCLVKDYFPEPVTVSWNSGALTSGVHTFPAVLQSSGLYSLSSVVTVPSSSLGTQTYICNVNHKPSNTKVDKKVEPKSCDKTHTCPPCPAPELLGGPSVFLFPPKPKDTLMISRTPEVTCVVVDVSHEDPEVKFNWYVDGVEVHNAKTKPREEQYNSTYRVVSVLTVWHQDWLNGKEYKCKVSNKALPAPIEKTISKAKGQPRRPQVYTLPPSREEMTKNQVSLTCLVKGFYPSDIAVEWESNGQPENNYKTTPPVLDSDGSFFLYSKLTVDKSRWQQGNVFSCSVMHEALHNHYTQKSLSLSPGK
# light: B1 light
# notes: also called 50G12-Hu-IgG1-L309W-E345R
# B3: OKT10-Hu-IgG1 (antibody, V domains shown)
# VH: EVQLVESGGGLVQPGGSLRLSCAASGFDFSRSWMNWVRQAPGKGLEWVSEINPDSSTINYTTSLKDRFTISRDNAKNSLYLQMNSLRAEDTAVYYCARYGNWFPYWGQGTLVTVSS
# VL: DIQMTQSPSSLSASVGDRVTITCKASQNVDTNVAWYQQKPGKAPKALIYSASYRYSGVPSRFSGSGSGTDFTLTISSLQPEDFATYYCQQYDSYPLTFGQGTKVEIKR
# notes: Humanized anti-human CD38 IgG1/kappa; also called humanized OKT10
# What was measured:
# [1] = biological target: T1, Human CD38 protein (human, UniProt P28907 43-300, limits assumed, biotinylated with EZ-Link NHS-LC-Biotin (sites not given)); assay: SPR, Biacore 8K, biotinylated CD38 captured on CAP chip, antibody as analyte, 1:1 model
# T1 construct: Biotinylated and captured on a Biacore CAP chip; also called CD38-biotin; Biotin-CD38
# [2] = biological target: T2, CD38-ECD-Cyno (cynomolgus monkey, UniProt Q5VAN0 44-301); assay: ELISA, plate coated with CD38-ECD-Cyno (10 ng/well), anti-human Fc-HRP detection
# T2 construct: Recombinant protein expressed in HEK293F cells and purified on Ni-NTA; Coated on the ELISA plate at 10 ng/well; also called cynomolgus monkey CD38; cynomolgus monkeys CD38; not shown: polyhistidine tag added at the end of the gene
# T2 sequence (Q5VAN0 44-301): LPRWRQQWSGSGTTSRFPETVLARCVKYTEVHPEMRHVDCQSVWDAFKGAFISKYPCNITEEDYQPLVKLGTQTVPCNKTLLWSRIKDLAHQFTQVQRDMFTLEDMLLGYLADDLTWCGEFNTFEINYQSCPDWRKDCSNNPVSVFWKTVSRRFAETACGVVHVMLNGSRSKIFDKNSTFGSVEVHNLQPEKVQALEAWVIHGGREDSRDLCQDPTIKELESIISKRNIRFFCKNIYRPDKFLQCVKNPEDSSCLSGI
# Procedure: The microplates were coated with corresponding recombinant proteins and closed with PBST containing 1% bovine serum albumin (PBST is a phosphate buffer containing 0.05% Tween-20). The tested antibody was diluted in a gradient and it was transferred to a microplate coated with recombinant protein. The sample was incubated at room temperature for half an hour. After washing the plate, appropriately diluted HRP (Horseradish Peroxidase) labeled sheep anti human antibody (Fc specific, purchased from Sigma) was added and incubated at room temperature for half an hour. After washing, 100 μL color developing solution with TMB(3,3′,5,5′-Tetramethylbenzidine) as substrate was added to each well and incubated at room temperature for 1˜5 min. The reaction was terminated by adding 50 μL termination solution (2 M H₂SO₄). The board reader (SpectraMax 190) reads OD450. GraphPad Prism7 was used for mapping and data analysis, and EC50/IC50 was calculated.
# Microplate (10 ng/well) was coated with CD38-ECD-Cyno, and the binding ability of CD38-ECD-Cyno to 50G12-Hu-IgG1, OKT10-Hu-IgG1, Daratumumab-IgG1, and Isatuximab-IgG1 was determined by ELISA.
binder,measurement,setting,value
B1,Kd,[1],3.58 nM
same,koff,[1],0.000613 s⁻¹
same,kon,[1],171000 M⁻¹ s⁻¹
B2,Kd,[1],2.99 nM
same,koff,[1],0.00103 s⁻¹
same,kon,[1],346000 M⁻¹ s⁻¹
B3,EC50,[2],0.132 nM
